Bridge positions count the residues as written; N and C are the ends. Peptide text beside a SMILES is read from it.
Key:
Kv1.3 (Homo sapiens) = Kv1.3 (Homo sapiens) (UniProt P22001); conditions: cited from earlier work
[1] = target: T1, K-Kv1.1 channel (hKv1.1S369T with mKate2) (Homo sapiens, UniProt Q09470, S369T); assay: Whole-cell patch-clamp of currents through K-Kv1.1 in Neuro2a cells; assay type: cell-based; conditions: HgTx1 2 nM, applied voltage from −10 to 70 mV, n = 10
T1 construct: these fragments were combined and amplified using terminal primers to obtain the whole mutated gene; expressed in transfected cells; host or cells: mouse neuroblastoma Neuro2a cells, transient transfection with pmKate2-KCNA1m1
Procedure: Membrane ion currents through the K-Kv1.1 channel were recorded at room temperature by the patch-clamp technique using the standard whole-cell configuration as described earlier.
Briefly, Neuro2a cells attached to coverslips (10 mm in diameter) pre-coated with poly-D-lysine were immersed in a buffer (140 mM NaCl, 2.8 mM KCl, 2 mM MgCl2, 2 mM CaCl2, 10 mM glucose, 10 mM HEPES, pH 7.4) and perfused continuously. Micropipettes with a tip resistance of 6–8 MΩ were filled with a pipette solution containing 140 mM KCl, 6 mM CaCl2, 2 mM MgCl2, 2 mM MgATP, 0.4 mM NaGTP, 10 mM HEPES, 20 mM BAPTA/KOH (pH 7.3). The patches were routinely held at a holding potential of −40 mV. The potential was changed from −70 to +70 mV (20 mV step) using 200 ms pulses, which were applied incrementally with an interval of 20 s. Finally, the potential returned to the holding potential.
Cells were measured 24–48 h after transfection. The cells were selected by K-Kv1.1 fluorescence. The cells were analyzed if their input resistance was more than 350 MΩ. The currents were recorded using an EPC-10 amplifier (HEKA Elektronik, Stuttgart, Germany).
[…] The toxins were dissolved in a complete medium.
The measured concentration dependence of current inhibition through the K-Kv1.1 channel by A-HgTx was analyzed with the following equation:Irel(L) = 100/(1 + (IC50/L)^h) (1) where Irel is a decrease in current (%), L is the concentration of A-HgTx, IC50 is the concentration of A-HgTx that induces a 50% decrease in current, and h is the Hill coefficient.

[2] = target: T2, Kv1.1 (K-Kv1.1, mKate2-tagged) (Homo sapiens, UniProt Q09470); assay: competitive confocal fluorescence binding with A-HgTx, complete medium
T2 chain: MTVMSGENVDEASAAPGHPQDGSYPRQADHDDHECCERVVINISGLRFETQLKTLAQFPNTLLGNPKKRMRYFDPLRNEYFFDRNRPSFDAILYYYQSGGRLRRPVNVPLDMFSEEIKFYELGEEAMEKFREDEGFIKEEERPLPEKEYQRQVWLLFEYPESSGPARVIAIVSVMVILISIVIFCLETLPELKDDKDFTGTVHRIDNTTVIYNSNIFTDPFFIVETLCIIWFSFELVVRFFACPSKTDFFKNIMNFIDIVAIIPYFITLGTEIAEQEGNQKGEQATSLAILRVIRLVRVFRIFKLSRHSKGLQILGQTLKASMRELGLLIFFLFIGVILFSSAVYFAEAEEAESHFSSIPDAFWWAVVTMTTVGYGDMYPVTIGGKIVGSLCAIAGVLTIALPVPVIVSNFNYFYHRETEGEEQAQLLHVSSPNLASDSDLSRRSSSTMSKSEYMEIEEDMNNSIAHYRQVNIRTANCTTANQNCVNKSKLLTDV

[3] = target: T2, Kv1.1 (K-Kv1.1, mKate2-tagged); assay: competitive confocal fluorescence binding with A-HgTx, K+ buffer (open state)
[4] = target: T2, Kv1.1 (K-Kv1.1, mKate2-tagged); assay: confocal fluorescence binding on Neuro2a cells, complete medium
[5] = target: T2, Kv1.1 (K-Kv1.1, mKate2-tagged); assay: confocal fluorescence binding on Neuro2a cells, K+ buffer (open state)
[6] = target: T2, Kv1.1 (K-Kv1.1, mKate2-tagged); assay: confocal fluorescence binding on Neuro2a cells, Na+ buffer (closed state)

Kv1.3 (Homo sapiens), sequence (P22001 whole entry): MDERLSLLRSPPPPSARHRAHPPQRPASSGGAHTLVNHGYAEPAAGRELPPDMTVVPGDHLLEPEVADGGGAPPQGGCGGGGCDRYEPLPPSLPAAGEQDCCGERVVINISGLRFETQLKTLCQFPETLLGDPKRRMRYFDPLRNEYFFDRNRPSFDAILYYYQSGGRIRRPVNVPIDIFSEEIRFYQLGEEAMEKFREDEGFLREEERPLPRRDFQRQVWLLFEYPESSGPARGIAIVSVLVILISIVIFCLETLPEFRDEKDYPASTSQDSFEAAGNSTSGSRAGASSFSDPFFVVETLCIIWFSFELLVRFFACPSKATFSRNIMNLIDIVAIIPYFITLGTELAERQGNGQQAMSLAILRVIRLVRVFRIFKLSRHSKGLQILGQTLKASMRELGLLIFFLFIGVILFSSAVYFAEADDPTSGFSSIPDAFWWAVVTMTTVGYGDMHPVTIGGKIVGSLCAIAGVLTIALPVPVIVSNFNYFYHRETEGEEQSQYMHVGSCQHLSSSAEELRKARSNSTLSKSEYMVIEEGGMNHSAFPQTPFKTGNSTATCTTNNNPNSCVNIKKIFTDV

**Q.** With “A-HgTx (Atto-labelled hongotoxin 1) (from UniProt P59847)” as the molecule, how does the Kd (Kv1.3 (Homo sapiens)) read?
**A.** Its Kd is 0.3 nM.

**Q.** For `CC[C@H](C)[C@@H]1NC(=O)CNC(=O)[C@H](Cc2ccccc2)NC(=O)[C@H](CCC(N)=O)NC(=O)[C@H](C)NC(=O)[C@H](CCCCN)NC(=O)[C@@H]2CSSC[C@@H](C(=O)N[C@@H](Cc3ccc(O)cc3)C(=O)N3CCC[C@H]3C(=O)N[C@@H](Cc3c[nH]cn3)C(=O)O)NC(=O)[C@H](CCCCN)NC(=O)[C@@H]3CSSC[C@H](NC(=O)[C@H](CCC(N)=O)NC(=O)[C@H](CCCCN)NC(=O)[C@@H]4CCCN4C(=O)[C@H](CO)NC(=O)[C@H]([C@@H](C)O)NC(=O)[C@@H](NC(=O)[C@H](CCCCN)NC(=O)[C@@H](NC(=O)[C@H](CC(=O)O)NC(=O)[C@@H](NC(=O)[C@@H](NC(=O)[C@@H](N)[C@@H](C)O)C(C)C)[C@@H](C)CC)C(C)C)CSSC[C@H](NC(=O)[C@H](CCCCN)NC(=O)[C@H](C)NC(=O)CNC(=O)[C@H](C)NC(=O)[C@H](CCCNC(=N)N)NC1=O)C(=O)N[C@@H](CCSC)C(=O)N[C@@H](CC(N)=O)C(=O)NCC(=O)N[C@@H](CCCCN)C(=O)N3)C(=O)N[C@@H](CC(C)C)C(=O)N1CCC[C@H]1C(=O)N1CCC[C@H]1C(=O)N2` [HgTx1, hongotoxin 1] (H-TVIDVKCTSPKQCLPPCKAQFGIRAGAKCMNGKCKCYPH-OH; disulfide 7-29, 13-34, 17-36), which “decrease in the peak current amplitude” value [1] is on record?
**A.** The value was 73 ± 8%.

**Q.** For TVIDVKCTSPKQCLPPCKAQFGIRAGAKCMNGKCKCYPH [hongotoxin 1 (HgTx1)], which Kd [2] is on record?
**A.** The Kd was 0.03 nM.

**Q.** And the Kd [3]?
**A.** Its Kd is 0.05 nM.

**Q.** With TVIDVKCTSPKQCLPPCKAQFGIRAGAKCMNGKCKCYPH [Atto 488-hongotoxin 1 (A-HgTx)] as the molecule, how does the Kd [4] read?
**A.** Its Kd is 0.7 nM.

**Q.** What about the Kd [5] of the same molecule?
**A.** The Kd was 0.8 nM.

**Q.** And the Kd [6]?
**A.** The Kd was 0.9 nM.

**Q.** For TIINVKCTSPKQCLPPCKAQFGQSAGAKCMNGKCKCYPH [margatoxin (MgTx)], which Kd [2] is on record?
**A.** The Kd was 0.3 nM.

**Q.** What about the Kd [3] of the same molecule?
**A.** The Kd was 0.5 nM.

**Q.** With TVINVKCTSPKQCLKPCKDLYGPHAGAKCMNGKCKCYNN [Ce1] as the molecule, how does the Kd [2] read?
**A.** The Kd was 11 nM.

**Q.** What about the Kd [3] of the same molecule?
**A.** The Kd was 18 nM.
